This passage reports inhibition of the Wnt-5a-induced Ca2+ signal (fura-2, A2058 melanoma cells, 100 uM Box5, 0.1 ug/ml Wnt-5a) results from US20120010151A1.

Where no end group is shown, it is not given here. The star is where a group is joined. Boc = CC(C)(C)OC(=O)*

The assay has as its target Wnt-5a receptors (on A2058 melanoma cells). Kind of assay: cell-based or functional assay.

B1: Box5 (Wnt-5a-derived N-butyloxycarbonyl hexapeptide Met-Asp-Gly-Cys-Glu-Leu) (peptide)
peptide: Boc-MDGCEL
B1 showed an inhibition of the Wnt-5a-induced Ca2+ signal (fura-2, A2058 melanoma cells, 100 uM Box5, 0.1 ug/ml Wnt-5a) of over 70%.
